Test results reported in US20200140551A1 (GlaxoSmithKline, published 2020).

Columns and labels:
human ICOS = target: T1, human ICOS (human, UniProt Q9Y6W8 21-140, limits assumed); assay: Biacore (SPR), human ICOS; format not described
T1 sequence: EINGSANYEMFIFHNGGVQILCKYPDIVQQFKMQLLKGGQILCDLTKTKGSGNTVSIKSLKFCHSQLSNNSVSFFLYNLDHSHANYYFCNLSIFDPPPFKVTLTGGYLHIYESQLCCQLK

cynomolgus ICOS = target: T2, cynomolgus ICOS (cynomolgus, UniProt A0A2K5TQR6 21-140); assay: Biacore (SPR), cyno ICOS; format not described
T2 construct: also called cyno ICOS; not shown: Carrier of the soluble construct, if any
T2 sequence: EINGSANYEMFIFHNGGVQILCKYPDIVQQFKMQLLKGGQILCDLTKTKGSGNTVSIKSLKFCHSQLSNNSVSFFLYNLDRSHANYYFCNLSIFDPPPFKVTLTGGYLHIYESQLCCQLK

| Binder | Kd (human ICOS) | Kd (cynomolgus ICOS) |
| --- | --- | --- |
| murine anti-human ICOS mAb clone 88.2 (antibody, V domains shown) VH: QVQLQQPGAELVRPGASVKLSCKASGYSFTSYWINWVKQRPGQGLEWIGNIYPSDSYTNYNQMFKDKATLTVDKSSNTAYMQLTSPTSEDSAVYYCTRWNLSYYFDNNYYLDYWGQGTTLTVSS VL: QAVVTQESALTTSPGETVTLTCRSSTGAVTTSNYANWVQEKPDHLFTGLIGGTNNRAPGVPARFSGSLIGDKAALTITGAQTEDEAIYFCALWYNNHLVFGGGTKLTVL | 31 nM | 23 nM |
| murine anti-human ICOS mAb clone 422.2 (antibody, V domains shown, also called hybridoma clone 422.2) VH: QVQLQQSGPELVRPGESVKISCMGSGYTFTDYAMHWVKQSHAKSLEWIGLISIYSDHTNYNQKFQGKATMTVDKSSSTAYMELARLTSEDSAIYYCGRNNYGNYGWYFDVWGAGTTVTVSS VL: ENVLTQSPAIMSASPGEKVTMTCSASSSVSYMHWYQQKSITSPKLWIYDTSKLASGVPGRFSGSGSGNSYSLTISSMEAEDVATYYCFQGSGYPYTFGGGTKLEIKR | 5.7 nM | 4.46 nM |
